{"source": "paper PMC6803476", "about": "“Nanodomain Clustering of the Plant Protein Remorin by Solid-State NMR” (Frontiers in Molecular Biosciences, 2019)", "proteins": {"B1": {"name": "REM_(86-198), truncated StREM1.3 bearing only the coiled-coil domain and RemCA (domain or fragment, Solanum tuberosum (potato), UniProt P93788 86-198, looked up)", "chain": "TEKRVSLIKAWEESEKSKAENKAQKKVSAIGAWENSKKANLEAELKKMEEQLEKKKAEYTEKMKNKIALLHKEAEEKRAMIEAKRGEDLLKAEELAAKYRATGTAPKKILGIF", "notes": "Remorin group 1 isoform 3 (StREM1.3) of potato (Solanum tuberosum), residues 86-198: coiled-coil segment and the C-terminal membrane anchor RemCA; source: E. coli BL21-DE3 (pET24 vector), purified as described in Martinez et al. (2018), HiPrep gel filtration buffer exchange"}}, "target": "the molecule itself", "experiment": "negative staining electron microscopy; purified protein incubated overnight at 30°C with preformed liposomes (protein/lipid 1/20; DMPC-d54/β-sitosterol 85/15 or DMPC-d54/β-sitosterol/PIP mix 75/15/10), 2% uranyl acetate stain; filaments mostly in samples without PIPs, very few with PIPs", "data": [{"protein": "B1", "values": [{"measurement": "binding result", "result": "binds"}]}]}
